Laboratory results: article PMC7855493 (Molecular cell, 2020)

Target: T1, yeast mitochondrial RNA polymerase ΔN100 (y-mtRNAP ΔN100) (S. cerevisiae, UniProt P13433 101-1351)
T1 sequence (looked up): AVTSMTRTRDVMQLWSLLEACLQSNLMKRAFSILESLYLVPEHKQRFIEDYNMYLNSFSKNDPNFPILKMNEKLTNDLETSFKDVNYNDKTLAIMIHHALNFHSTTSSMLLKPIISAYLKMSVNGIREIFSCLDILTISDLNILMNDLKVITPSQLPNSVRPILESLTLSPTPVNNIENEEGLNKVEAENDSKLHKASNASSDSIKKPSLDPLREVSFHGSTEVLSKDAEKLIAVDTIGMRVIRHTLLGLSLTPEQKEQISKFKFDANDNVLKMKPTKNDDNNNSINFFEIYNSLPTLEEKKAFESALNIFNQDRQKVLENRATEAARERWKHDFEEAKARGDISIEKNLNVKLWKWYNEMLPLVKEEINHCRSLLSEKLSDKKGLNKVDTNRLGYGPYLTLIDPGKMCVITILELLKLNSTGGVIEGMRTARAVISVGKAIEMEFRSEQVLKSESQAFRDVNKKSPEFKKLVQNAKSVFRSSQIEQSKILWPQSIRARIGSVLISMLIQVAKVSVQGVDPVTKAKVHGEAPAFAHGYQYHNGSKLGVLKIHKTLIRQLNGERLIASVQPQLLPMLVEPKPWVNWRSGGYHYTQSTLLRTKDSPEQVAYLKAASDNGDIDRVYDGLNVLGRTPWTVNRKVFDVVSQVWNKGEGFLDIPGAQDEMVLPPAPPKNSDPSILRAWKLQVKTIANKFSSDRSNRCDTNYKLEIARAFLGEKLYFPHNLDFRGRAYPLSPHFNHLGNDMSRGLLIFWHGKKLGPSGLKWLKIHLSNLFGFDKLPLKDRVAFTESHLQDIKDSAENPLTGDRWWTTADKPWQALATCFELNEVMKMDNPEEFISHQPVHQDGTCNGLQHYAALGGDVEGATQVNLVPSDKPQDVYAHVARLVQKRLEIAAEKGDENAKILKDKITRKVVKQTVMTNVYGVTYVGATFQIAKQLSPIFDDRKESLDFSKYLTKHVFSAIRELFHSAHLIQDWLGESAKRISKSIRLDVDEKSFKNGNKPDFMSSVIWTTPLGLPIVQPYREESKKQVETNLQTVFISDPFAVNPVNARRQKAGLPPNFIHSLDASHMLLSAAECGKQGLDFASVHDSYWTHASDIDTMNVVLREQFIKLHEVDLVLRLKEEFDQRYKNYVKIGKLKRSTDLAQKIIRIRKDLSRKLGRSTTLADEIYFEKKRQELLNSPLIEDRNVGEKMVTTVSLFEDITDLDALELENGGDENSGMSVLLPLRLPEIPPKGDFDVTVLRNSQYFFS
Assay: cryo-EM structure

B1: MTF1 (yeast mitochondrial transcription factor), wild type (natural protein, S. cerevisiae)
chain: SVPIPGIKDISKLKFFYGFKYLWNPTVYNKIFDKLDLTKTYKHPEELKVLDLYPGVGIQSAIFYNKYCPRQYSLLEKRSSLYKFLNAKFEGSPLQILKRDPYDWSTYSNLIDEERIFVPEVQSSDHINDKFLTVANVTGEGSEGLIMQWLSCIGNKNWLYRFGKVKMLLWMPSTTARKLLARPGMHSRSKCSVVREAFTDTKLIAISDANELKGFDSQCIEEWDPILFSAAEIWPTKGKPIALVEMDPIDFDFDVDNWDYVTRHLMILKRTPLNTVMDSLGHGGQQYFNSRITDKDLLKKCPIDLTNDEFIYLTKLFMEWPFKPDILMDFVDMYQTEHSG
Does B1 bind?
Result: binds
